Publication PMC6091870 (Cell reports, 2018)

T1: ACAD9 (mouse (endogenous in mouse heart)), Q8JZN5
T1 chain: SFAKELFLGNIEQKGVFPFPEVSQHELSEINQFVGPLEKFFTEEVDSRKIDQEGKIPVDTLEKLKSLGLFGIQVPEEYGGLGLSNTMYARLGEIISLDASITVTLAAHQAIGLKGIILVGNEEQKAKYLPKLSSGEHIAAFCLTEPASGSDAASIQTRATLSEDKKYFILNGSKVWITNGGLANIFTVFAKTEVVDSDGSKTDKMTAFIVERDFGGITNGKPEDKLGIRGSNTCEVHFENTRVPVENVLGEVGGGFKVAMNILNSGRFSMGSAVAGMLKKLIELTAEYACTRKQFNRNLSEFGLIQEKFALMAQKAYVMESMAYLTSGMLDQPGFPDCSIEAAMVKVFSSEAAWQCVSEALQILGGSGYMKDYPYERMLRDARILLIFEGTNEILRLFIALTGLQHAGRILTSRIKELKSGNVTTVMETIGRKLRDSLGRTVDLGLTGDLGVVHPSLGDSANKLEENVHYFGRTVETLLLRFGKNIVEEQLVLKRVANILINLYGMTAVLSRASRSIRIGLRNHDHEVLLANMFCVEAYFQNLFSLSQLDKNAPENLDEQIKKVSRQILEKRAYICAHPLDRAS

B1: ACAD9, Q8JZN5 42-625 (enzyme)
chain: T1 chain
B2: oxoglutarate dehydrogenase (OGDH) (enzyme, mouse (endogenous in mouse heart), UniProt Q60597 41-1023, looked up)
chain: SAPVAAEPFLSGTSSNYVEEMYCAWLENPKSVHKSWDIFFRNTNAGAPPGTAYQSPLSLSRSSLATMAHAQSLVEAQPNVDKLVEDHLAVQSLIRAYQIRGHHVAQLDPLGILDADLDSSVPADIISSTDKLGFYGLHESDLDKVFHLPTTTFIGGQEPALPLREIIRRLEMAYCQHIGVEFMFINDLEQCQWIRQKFETPGIMQFTNEEKRTLLARLVRSTRFEEFLQRKWSSEKRFGLEGCEVLIPALKTIIDMSSANGVDYVIMGMPHRGRLNVLANVIRKELEQIFCQFDSKLEAADEGSGDMKYHLGMYHRRINRVTDRNITLSLVANPSHLEAADPVVMGKTKAEQFYCGDTEGKKVMSILLHGDAAFAGQGIVYETFHLSDLPSYTTHGTVHVVVNNQIGFTTDPRMARSSPYPTDVARVVNAPIFHVNSDDPEAVMYVCKVAAEWRNTFHKDVVVDLVCYRRNGHNEMDEPMFTQPLMYKQIRKQKPVLQKYAELLVSQGVVNQPEYEEEISKYDKICEEAFTRSKDEKILHIKHWLDSPWPGFFTLDGQPRSMTCPSTGLEEDVLFHIGKVASSVPVENFTIHGGLSRILKTRRELVTNRTVDWALAEYMAFGSLLKEGIHVRLSGQDVERGTFSHRHHVLHDQNVDKRTCIPMNHLWPNQAPYTVCNSSLSEYGVLGFELGFAMASPNALVLWEAQFGDFNNMAQCIIDQFICPGQAKWVRQNGIVLLLPHGMEGMGPEHSSARPERFLQMCNDDPDVLPDLQEENFDINQLYDCNWIVVNCSTPGNFFHVLRRQILLPFRKPLIVFTPKSLLRHPEARTSFDEMLPGTHFQRVIPENGPAAQDPHKVKRLLFCTGKVYYDLTRERKARNMEEEVAITRIEQLSPFPFDLLLKEAQKYPNAELAWCQEEHKNQGYYDYVKPRLRTTIDRAKPVWYAGRDPAAAPATGNKKTHLTELQRFLDTAFDLDAFKKFS

Key:
[1] = biological target: T1, ACAD9 (mouse (endogenous in mouse …)); experiment: native gel or EMSA; settings: remark: other sources report otherwise
native gel or EMSA = biological target: the molecule itself; experiment: native gel or EMSA

Row | Binder | stoichiometry N [1] | stoichiometry N (native gel or EMSA)
1 | B1 | 2 | 
2 | B2 |  | 2
